{
  "source": "paper PMC7921410",
  "about": "“Structure of mammalian Mediator complex reveals Tail module architecture and interaction with a conserved core” (Nature Communications, 2021)",
  "binders": {"B1": {"name": "MED9 (natural protein, mouse (Mus musculus; endogenous in CH12), UniProt Q8VCS6 1-142, looked up)", "chain": "MASSGVAGGRQAEDTLQPPPELLPESKPPPPPQPLPVAALPPPAAPRPQSPAGAKEENYSFLPLVHNVIKCMDKDSPDLHQDLNALKTKFQELRKLIGTMPGIHVSPEQQQQQLHSLREQVRTKNELLQKYKSLCMFEIPKD", "notes": "MED9, Mus musculus, endogenous Middle module subunit of Mediator; source: endogenous, CH12 mouse B lymphoma nuclear extract; immunopurified as part of Mediator (FLAG M2 agarose, FLAG peptide elution)"}},
  "key": {"MED4": {"target": "T1, MED4 (mouse (Mus musculus; endogenous in CH12), UniProt Q9CQA5 1-270)", "T1 construct": "MED4, Mus musculus, endogenous Middle module subunit of Mediator; source: endogenous, CH12 mouse B lymphoma nuclear extract; immunopurified as part of Mediator (FLAG M2 agarose, FLAG peptide elution)", "T1 sequence (looked up)": "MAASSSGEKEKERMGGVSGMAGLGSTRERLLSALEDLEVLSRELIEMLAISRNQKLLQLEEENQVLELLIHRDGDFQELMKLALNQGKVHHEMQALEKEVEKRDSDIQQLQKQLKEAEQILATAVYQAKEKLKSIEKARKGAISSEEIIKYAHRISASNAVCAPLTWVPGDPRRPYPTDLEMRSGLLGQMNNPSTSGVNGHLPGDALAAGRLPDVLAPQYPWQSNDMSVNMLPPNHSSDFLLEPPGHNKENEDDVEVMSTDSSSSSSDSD", "experiment": "cryo-EM structure; endogenous mouse Mediator immunopurified from CH12 nuclear extract through 3×FLAG-MED19 or 3×FLAG-MED25; eluted in 50 mM HEPES pH 7.9, 100 mM KCl, 5% glycerol, 1 mM EDTA, 0.005% NP-40; map at 4.0 Å overall, focused refinement of the MED1 and knob/hook ends (6-10 Å)", "settings": "both partners purified"}, "MED1": {"target": "T2, MED1 (mouse (Mus musculus; endogenous in CH12), UniProt Q925J9 1-1575)", "T2 construct": "MED1, Mus musculus, endogenous Middle module subunit of Mediator; only a partial model of the folded N-terminal portion was built; Partial model only; this part of the map is at about 6-8 Å; also called Mediator subunit MED1; source: endogenous, CH12 mouse B lymphoma nuclear extract; immunopurified as part of Mediator (FLAG M2 agarose, FLAG peptide elution)", "T2 sequence (Q925J9 whole entry)": "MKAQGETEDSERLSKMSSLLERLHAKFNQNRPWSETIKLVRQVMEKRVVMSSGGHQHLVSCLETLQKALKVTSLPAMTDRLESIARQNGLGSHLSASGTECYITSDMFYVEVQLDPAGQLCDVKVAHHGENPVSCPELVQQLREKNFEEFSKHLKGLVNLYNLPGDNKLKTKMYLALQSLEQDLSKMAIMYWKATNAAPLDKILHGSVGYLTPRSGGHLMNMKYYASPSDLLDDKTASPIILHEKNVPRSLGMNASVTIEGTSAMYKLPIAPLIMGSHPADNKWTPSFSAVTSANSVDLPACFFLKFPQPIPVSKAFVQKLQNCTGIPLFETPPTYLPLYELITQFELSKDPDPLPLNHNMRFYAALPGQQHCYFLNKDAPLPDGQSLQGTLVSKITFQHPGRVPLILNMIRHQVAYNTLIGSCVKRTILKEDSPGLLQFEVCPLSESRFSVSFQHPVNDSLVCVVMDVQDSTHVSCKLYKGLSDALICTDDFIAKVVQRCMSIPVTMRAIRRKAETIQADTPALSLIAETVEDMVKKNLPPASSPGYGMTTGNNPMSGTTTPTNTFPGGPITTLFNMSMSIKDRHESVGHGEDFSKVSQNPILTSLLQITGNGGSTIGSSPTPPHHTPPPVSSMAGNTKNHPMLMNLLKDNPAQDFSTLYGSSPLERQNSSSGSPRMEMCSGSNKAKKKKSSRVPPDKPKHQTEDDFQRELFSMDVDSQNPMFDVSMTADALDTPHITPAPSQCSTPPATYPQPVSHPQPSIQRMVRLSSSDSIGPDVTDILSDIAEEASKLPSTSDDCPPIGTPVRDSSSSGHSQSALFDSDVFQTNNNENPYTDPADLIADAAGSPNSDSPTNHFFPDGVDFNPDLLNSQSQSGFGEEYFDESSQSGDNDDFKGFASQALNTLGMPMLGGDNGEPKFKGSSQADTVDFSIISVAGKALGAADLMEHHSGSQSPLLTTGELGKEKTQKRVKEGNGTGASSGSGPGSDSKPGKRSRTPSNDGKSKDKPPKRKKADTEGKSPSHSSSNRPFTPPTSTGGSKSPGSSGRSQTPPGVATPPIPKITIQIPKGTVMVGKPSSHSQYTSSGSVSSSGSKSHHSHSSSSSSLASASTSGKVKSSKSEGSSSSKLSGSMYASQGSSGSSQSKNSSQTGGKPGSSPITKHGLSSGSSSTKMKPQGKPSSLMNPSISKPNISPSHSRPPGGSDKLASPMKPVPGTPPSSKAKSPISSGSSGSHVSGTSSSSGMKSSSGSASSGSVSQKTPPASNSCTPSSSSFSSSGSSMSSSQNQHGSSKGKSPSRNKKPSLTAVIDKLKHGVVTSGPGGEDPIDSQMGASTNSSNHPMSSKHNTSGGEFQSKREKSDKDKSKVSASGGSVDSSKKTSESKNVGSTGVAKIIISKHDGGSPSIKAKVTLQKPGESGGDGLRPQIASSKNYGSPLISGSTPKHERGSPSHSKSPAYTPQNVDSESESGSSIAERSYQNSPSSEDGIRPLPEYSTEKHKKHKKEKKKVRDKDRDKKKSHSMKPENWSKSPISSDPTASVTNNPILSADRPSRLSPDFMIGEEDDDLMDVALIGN", "experiment": "cryo-EM structure; endogenous mouse Mediator immunopurified from CH12 nuclear extract through 3×FLAG-MED19 or 3×FLAG-MED25; eluted in 50 mM HEPES pH 7.9, 100 mM KCl, 5% glycerol, 1 mM EDTA, 0.005% NP-40; map at 4.0 Å overall, focused refinement of the MED1 and knob/hook ends (6-10 Å)", "settings": "both partners purified"}},
  "data": [
    {"binder": "B1", "values": [
      {"measurement": "binding result", "setting": "MED4", "value": "binds"},
      {"measurement": "binding result", "setting": "MED1", "value": "binds"}
    ]}
  ]
}
